# Measurements reported in the RNAGym collection of RNA variant scans (doi:10.1073/pnas.2313332121).
# This sample holds only a part of the variants without activity.
# B1: TPR 5TU (parent)
# chain: GGAUCUUCUCGAUCUAACAAAAAAGACAAAUCUGCCACAAAGCUUGAGAGCAUCUUCGGAUGCAGAGGCGGCAGCCUUCGGUGGCGCGAUAGCGCCAACGUUCUCAACUAUGACACGCAAAACGCGUGCUCCGUUGAAUGGAGUUUAUCAUG
# Variants of: B1
# Assay: polymerase ribozyme fitness, log enrichment relative to wild type (log ratio); higher = more active; in vitro selection for triplet polymerase activity
# In short: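 A heterodimeric triplet polymerase ribozyme had each of its subunits mutagenized by PCR into a library, which was transcribed. One round of in vitro selection, done in triplicate, annealed each library with a biotinylated primer, its partner subunit and triplets, then incubated it frozen at −7 °C before gel excision of extended constructs, streptavidin-bead capture and RT-PCR. Fitness is the logarithm of genotype enrichment relative to wild-type enrichment, based on Illumina sequencing of inputs and outputs and inverse-variance-weighted replicate averages. A base-2 logarithm is used, and genotypes were kept only with ≥10 input reads and ≥1 read per output.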
row,Variant,polymerase ribozyme fitness (log ratio)
1,A12G G58U C116U A150G,-1.58
2,A12U A17G C35A U44A A47C A52U C95U G152U,≤ -4.2
3,A12G C54U C69G U145G,-4.06
4,A12C U15A U56A,-0.709
5,A12G G25C A122G G136A,-3.16
6,A12C U13G C18G A21G U101A A110U A120U G136C G140U G152U,≤ -4.2
7,A12G A40U A60C G88U G117C,≤ -4.2
8,A12G G83A G126U U134C U148G,≤ -4.2
9,A12G U45G A49U A60G U61G A107U U127G,≤ -4.2
10,A12G U56A U144A,0.103
11,A12U A22U C27U A40G C69A U78A G94A A115C A119U G124A,≤ -4.2
12,A12G U45A A52U U55A C79G G81A A98G,≤ -4.2
13,A12G C14G A22C A37C G88C G143C,≤ -4.2
14,A12G A24U U53A U82G G84A A89U,-3.13
15,A12G A98U,-0.71
16,A12G A41U C85U U101G C105A G140U G152U,-4.09
17,A12G C75U C93U U144C,-0.389
18,A12G A30U U146G,-3.66
19,A12G U13G C38A A41U C95A U102C A137G,≤ -4.2
20,A12G C79U G86C A120G C125U,≤ -4.2
21,A12U A16C A28G C38U A41U G86A A150G,≤ -4.2
22,A12G C54U U61A C72A C96U A98U C99A A142C,≤ -4.2
23,A12G A20U A29U U53G A66C,-4.16
24,A12G G59A G94C,-0.564

row,Variant,polymerase ribozyme fitness (log ratio)
1,A12G C116G,0.204
2,A12G A60G C93U,-0.294
3,A12G A21C C32G G50U C125G,≤ -4.2
4,A12U A17G C57A A98U,-0.729
5,A12G U13C C96A,-0.909
6,A12G C14G C18U U31A U56G U101A,-2.32
7,A12G C57G G59A C96U U127G,-3.86
8,A12U A19C U44G U148C,≤ -4.2
9,A12G U78C U139G,-1.31
10,A12G A30G,-2.97
11,A12C U61G C75G C96U C131U G140U G141A,≤ -4.2
12,A12G C63U,-0.0387
13,A12C G133C U145A,-1.11
14,A12G A26G G94C C95A A137G,-4
15,A12G A29U U44C G50C A91C C93G G94C C116U U144A,≤ -4.2
16,A12G G81A G92A C114A G152U,≤ -4.2
17,A12U,-0.161
18,A12G,0.116
19,A12G U55A U61G C125G,-3.62
20,A12G A16U A26U G83U C87G U145C,≤ -4.2
21,A12G C14G A52C G67A G124A A137C,≤ -4.2
22,A12G G80A C118U A119C A120G G143U,-3.12
23,A12U A20G U56A C75G A121G,≤ -4.2
24,A12G C14G G92C,-2.86

row,Variant,polymerase ribozyme fitness (log ratio)
1,A12G C96A U134C A138G G141C,-3.97
2,A12U A16U C51A G94A U109C A113G C116A U144A,≤ -4.2
3,A12G A22C A66U C69U G92A,≤ -4.2
4,A12U A17U A28C C43G C103G,≤ -4.2
5,A12G A23U C35U C76A C93U A97U C116A,-3.12
6,A12C U15G U56A C75U G86U C129A G133U,≤ -4.2
7,A12G U53G G59A C95G A98C U146A,-1.26
8,A12G A24G C35A U44G G50C G71C G124A,≤ -4.2
9,A12G C95U,0.599
10,A12C U101G A137G,-0.888
11,A12G G92C G133U,-3.59
12,A12G C14G A97U,-2.49
13,A12G C14G A17G C75U A91G C105U A106G A121U A137U,≤ -4.2
14,A12G G141C,-0.0174
15,A12G U15C A37G U44A U56A C69U C87U,≤ -4.2
16,A12U A16C C57G G81A U104G A115G,≤ -4.2
17,A12G G58A A91U U109G,-3.78
18,A12G U45A A52U C93A C118A A120U U145G,≤ -4.2
19,A12G A91G A106G,-2.04
20,A12G A21U C27A G48C A49C C51A G84A C129A,≤ -4.2
21,A12G C54A G86C C87U G126A,≤ -4.2
22,A12G A19U U45A U53A G88U,≤ -4.2
23,A12G A20G A60G,-0.113
24,A12G U77C,-3.98

row,Variant,polymerase ribozyme fitness (log ratio)
1,A12G G84A G143A A147G,-3.25
2,A12U A20U C54U A73G A91U C99U U146G,≤ -4.2
3,A12G U77A C96A A98G,≤ -4.2
4,A12G A52C C93U A98U G124A,-2
5,A12G A41G C85G A106G,-1.5
6,A12C U44A U56G G83U A89U C95A A98C C103G A107G,≤ -4.2
7,A12G G83U G92U A142G,-2.93
8,A12G U13A U31A C57A G65A C85G,≤ -4.2
9,A12G A19C A20G A22C A28G A30G C57A G59A G84A U101G A115U G136U,≤ -4.2
10,A12G C35A C95U A106U,≤ -4.2
11,A12G C51U,0.193
12,A12U A16G A30U C79G C95A U144A,≤ -4.2
13,A12G C87G G88U C96U C105A C108G C116U,≤ -4.2
14,A12G C57G G83U A115G,-2.09
15,A12G U13A A19C G92C C99U G124C U148G G152U,≤ -4.2
16,A12C U139A,≤ -4.2
17,A12G C27U A40U A73G C87G C95A G124U G136A,≤ -4.2
18,A12G C87U,-0.54
19,A12G C87G,-3.83
20,A12G C38A C96G,-0.0836
21,A12G G48C U56A G70A G83U,≤ -4.2
22,A12G A40C A41G U56A U82G C99A A113C C125U,≤ -4.2
23,A12G C14G A22G U61A G71A C99U C123U A142G,≤ -4.2
24,A12G U45G C69G A91C A115G G133A G143U,≤ -4.2

row,Variant,polymerase ribozyme fitness (log ratio)
1,A12G C14U,-0.925
2,A12G A37U U55G A113C,≤ -4.2
3,A12G G80C G81C C118U U135A,-1.66
4,A12G C85A,-1.31
5,A12G C36A U55G G94A G141C U148G,≤ -4.2
6,A12U A21C G70C G84U C132A G136A A142U,≤ -4.2
7,A12U A17U A22C G34C U55A U56A C57U A64C C95U,≤ -4.2
8,A12U A20C G86U G100U U151A,≤ -4.2
9,A12G U56A A60U G65U A91U C96G A120U,≤ -4.2
10,A12G A47C G58C C69A C93A U144C,-3.84
11,A12G C85A C118A G136U,-3.83
12,A12G G83C,-0.586
13,A12G U56A C76A G143U,-3.46
14,A12G C51G A52C C63G,≤ -4.2
15,A12G A49C G74A C96U U102G G112U C125U,≤ -4.2
16,A12G G92A U127A U139A G143A,≤ -4.2
17,A12G A20U A23C G141U,≤ -4.2
18,A12G C99G,-0.551
19,A12U A16U A17U C27U A47U G48A C76G G86U U145A G152U,≤ -4.2
20,A12G C57U U61A G68A G70C C87U C96A G133A U148A,≤ -4.2
21,A12G G59C,0.244
22,A12G A23C A47C A60G C93U,≤ -4.2
23,A12C U55G A97G C105U,-3.12
24,A12G A20G A23U A89G C96U U111C G124C U130G G133C G140A,≤ -4.2

row,Variant,polymerase ribozyme fitness (log ratio)
1,A12G U55A G71A G80C,≤ -4.2
2,A12G A23C G25A A41G G94C C96U C116U G143C,≤ -4.2
3,A12G A22G A39U A47U G92U A97G U101G,≤ -4.2
4,A12G A24U C87U,0.648
5,A12G U55A,0.668
6,A12G U55G,-2
7,A12G A37G C87U U109G U144C U145C C149G,≤ -4.2
8,A12G C14U G50A U53A C95U C99A C116U A150U,-4.15
9,A12G C93U,-1.21
10,A12G C93A,-2.26
11,A12U A21U C38A A106U C116A A119G,-3.18
12,A12U A19C C95U C105A,-1.03
13,A12U A19G U82C G83A A119U,-4.07
14,A12G C38U C99U,-0.24
15,A12G A24U G34A G92U G126C,-1.83
16,A12G U151G,-4.06
17,A12G U31G C118A A120G G141C,-2.6
18,A12C U33A G48C U127G G140C,≤ -4.2
19,A12G A23U C85G A150G,≤ -4.2
20,A12U A20U G81A C87A C96A U102C C125U,≤ -4.2
21,A12U A22G A29C G42U C87U C93A,≤ -4.2
22,A12G C14U G92U U111C A138U,≤ -4.2
23,A12G A39U G42C C57A G59C C79A U134A,≤ -4.2
24,A12U A21U A39C G92A U109G A137G,≤ -4.2

row,Variant,polymerase ribozyme fitness (log ratio)
1,A12G A17G C93U A120G,-0.897
2,A12G A41C A47C C72A C85U G133A A150U,≤ -4.2
3,A12G U61A C76A A106G,-3.97
4,A12G C69G A89U C96G U104A,-2.98
5,A12C U53A G58U C99G U151C,≤ -4.2
6,A12G C54G C116U,-0.574
7,A12G C35U U56C C57G G58U A60G,-0.194
8,A12U A19U C35A U61G C69U U78G G80C A97C G126U,≤ -4.2
9,A12G C57U C87U C103G,-2.19
10,A12G C85U C118G C125A,-0.473
11,A12U A20U A21C C87G A142G,≤ -4.2
12,A12G A29U U31A G67U C72A G92U A137G,≤ -4.2
13,A12G G88A U109C A142C,-4.12
14,A12G A16G U44G G81C G84A C95U U144A U146C,≤ -4.2
15,A12G C75G C93U C108U A110C,≤ -4.2
16,A12G A52U C76U C93U A120U,-2.12
17,A12G G74C,-3.9
18,A12G U53A G68A A107U,≤ -4.2
19,A12G A19U A41U G50C C85U G133A U148C,≤ -4.2
20,A12G U56G C85G,-2.2
21,A12G U145A,1.33
22,A12G A17G A19G U53A U55A G81U G84U G117U,-4.04
23,A12C U15C A40U C99G,-0.411
